These results are taken from patent publication US20260126425A1.

The target of test [1] is SARS-CoV-2 Spike protein (Spike trimer) (SARS-CoV-2) (UniProt P0DTC2).
The target is the same in test [2]. This is another data set of the same source.
Test [3] has the same target. The source holds these as a separate data set.

Ty1-modified ClyA nanopore (ClyA-f-Ty1): the Kd (commonly the concentration at which binding is half-saturated) in test [1] amounted to 0.761 nM. For the same substance, in test [2], the EC50 (read off the curve) – broadly, the concentration needed to bring the measured effect to its halfway point – worked out at 0.6 nM. The constant fit of Log10(tin (ms)) against Spike protein concentration (pM) in test [3] is 1.48 Log10(ms).
